Data as given in patent US20170313764A1 (ACADEMISCH MEDISCH CENTRUM, published 2017).

B1: AT15-009 (antibody, V domains shown)
VH: QVLLVQSGAEVKKPGSSVKVSCKASGGTFSTYAISWLRQAPGQGPEWMGGIVPMFGITNYAQHFQGRITITADKSTSTAYMELSSLGSEDTAVYFCARDLRSGGTFFSRGFDLWGPGTKVTVSS
VL: EIVLTQSPGTLSLSPGERATLSCRASQSVSSSFLTWYQQKPGQAPRLLIFDASTRATGVPDRFSGSGSGTDFTLTISRLEPEDFGVYYCQQFDSSPTFGGGTKVEIK
B2: AT15-012 (antibody, V domains shown)
VH: QVQLVQSGAEVKKPGSSVKVSCKASGGNFNIFPITWVRQAPGQGLEWMGEIIPMLGTPEYAQKFQGRVTITADKSTGTAFMELSSLRSEDTAVYYCARTETTLPGTLFFVYYFHFWGQGTPVTVSS
VL: EIVMTQSPVTLSVSPGERAILSCRASQSVSSSLAWYQQKPGQAPRLLIYGASTRATGVPARFSGSGSGTEFTLTISSVQSEDYAIYFCQQYNDRPPWTFGQGTKVEIK
notes: also called AT15-12

What was measured:
Experiment in all cases: ELISA, GNA-captured E1E2 lysate; EC50 wild type / EC50 mutant
[1] = target: E1E2 of HCV isolate H77 with single mutation N325A (in E1) (Hepatitis C virus genotype 1a, strain …, UniProt P27958 192-383; P27958 384-746)
[2] = target: E1E2 of HCV isolate H77 with single mutation N415A (Hepatitis C virus genotype 1a, strain …, UniProt P27958 192-383; P27958 384-746)
[3] = target: E1E2 of HCV isolate H77 with single mutation W420A (Hepatitis C virus genotype 1a, strain …, UniProt P27958 192-383; P27958 384-746)
[4] = target: E1E2 of HCV isolate H77 with single mutation T435A (Hepatitis C virus genotype 1a, strain …, UniProt P27958 192-383; P27958 384-746)
[5] = target: E1E2 of HCV isolate H77 with single mutation G436A (Hepatitis C virus genotype 1a, strain …, UniProt P27958 192-383; P27958 384-746)
[6] = target: E1E2 of HCV isolate H77 with single mutation A439G (Hepatitis C virus genotype 1a, strain …, UniProt P27958 192-383; P27958 384-746)
[7] = target: E1E2 of HCV isolate H77 with single mutation L441A (Hepatitis C virus genotype 1a, strain …, UniProt P27958 192-383; P27958 384-746)
[8] = target: E1E2 of HCV isolate H77 with single mutation F442A (Hepatitis C virus genotype 1a, strain …, UniProt P27958 192-383; P27958 384-746)
[9] = target: E1E2 of HCV isolate H77 with single mutation Y443A (Hepatitis C virus genotype 1a, strain …, UniProt P27958 192-383; P27958 384-746)
[10] = target: E1E2 of HCV isolate H77 with single mutation T526A (Hepatitis C virus genotype 1a, strain …, UniProt P27958 192-383; P27958 384-746)
[11] = target: E1E2 of HCV isolate H77 with single mutation Y527A (Hepatitis C virus genotype 1a, strain …, UniProt P27958 192-383; P27958 384-746)
[12] = target: E1E2 of HCV isolate H77 with single mutation W529A (Hepatitis C virus genotype 1a, strain …, UniProt P27958 192-383; P27958 384-746)
[13] = target: E1E2 of HCV isolate H77 with single mutation G530A (Hepatitis C virus genotype 1a, strain …, UniProt P27958 192-383; P27958 384-746)
[14] = target: E1E2 of HCV isolate H77 with single mutation D533A (Hepatitis C virus genotype 1a, strain …, UniProt P27958 192-383; P27958 384-746)
[15] = target: E1E2 of HCV isolate H77 with single mutation D535A (Hepatitis C virus genotype 1a, strain …, UniProt P27958 192-383; P27958 384-746)
[16] = target: E1E2 of HCV isolate H77 with single mutation P612A (Hepatitis C virus genotype 1a, strain …, UniProt P27958 192-383; P27958 384-746)
[17] = target: E1E2 of HCV isolate H77 with single mutation W616A (Hepatitis C virus genotype 1a, strain …, UniProt P27958 192-383; P27958 384-746)
[18] = target: E1E2 of HCV isolate H77 with single mutation R657A (Hepatitis C virus genotype 1a, strain …, UniProt P27958 192-383; P27958 384-746)
[19] = target: E1E2 of HCV isolate H77 with single mutation P664A (Hepatitis C virus genotype 1a, strain …, UniProt P27958 192-383; P27958 384-746)
[20] = target: E1E2 of HCV isolate H77 with single mutation P676A (Hepatitis C virus genotype 1a, strain …, UniProt P27958 192-383; P27958 384-746)

Binder	relative binding, mutant vs wild type [1] [%]	relative binding, mutant vs wild type [2] [%]	relative binding, mutant vs wild type [3] [%]	relative binding, mutant vs wild type [4] [%]	relative binding, mutant vs wild type [5] [%]	relative binding, mutant vs wild type [6] [%]	relative binding, mutant vs wild type [7] [%]	relative binding, mutant vs wild type [8] [%]	relative binding, mutant vs wild type [9] [%]	relative binding, mutant vs wild type [10] [%]	relative binding, mutant vs wild type [11] [%]	relative binding, mutant vs wild type [12] [%]	relative binding, mutant vs wild type [13] [%]	relative binding, mutant vs wild type [14] [%]	relative binding, mutant vs wild type [15] [%]	relative binding, mutant vs wild type [16] [%]	relative binding, mutant vs wild type [17] [%]	relative binding, mutant vs wild type [18] [%]	relative binding, mutant vs wild type [19] [%]	relative binding, mutant vs wild type [20] [%]
B1	103	116	102	101	93	97	57	27	64	87	84	82	52	94	55	94	29	123	101	102
B2	94	101	111	99	91	94	83	60	103	82	76	77	48	82	52	81	71	138	83	92
